From publication PMC7022617

Columns and labels:
[1] = test system: hemagglutinin H7 on virus particles (Influenza A virus A/mallard/Sweden/91/2002 (H7N9)); test: ELAA
[2] = test system: hemagglutinin H5 on virus particles (Influenza A virus A/chicken/Kurgan/3654at/2005 (H5N1)); test: ELAA
[3] = test system: hemagglutinin H9 on virus particles (Influenza A virus A/duck/Primorie/3628/2002 (H9N2)); test: ELAA
[4] = test system: hemagglutinin H3 on virus particles (Influenza A virus A/England/42/1972 (H3N2)); test: ELAA
[5] = test system: hemagglutinin HA1 subunit H3 (recombinant, Abcam ab69749) (Influenza A virus H3 (strain not given)); test: SPR
[6] = test system: hemagglutinin HA1 subunit H9 (recombinant, Abcam ab67740) (Influenza A virus H9 (strain not given)); test: SPR
[7] = test system: hemagglutinin HA1 subunit H1 (recombinant, Abcam ab69741) (Influenza A virus H1 (strain not given)); test: SPR

Sequence	Kd [1]	Kd [2]	Kd [3]	Kd [4]	Kd [5]	Kd [6]	Kd [7]
TTGGGGTAAGAAGGGAGGGCGGGGGTT [5'-biotin G7-TAAGAA]	13 nM	9 nM	7 nM	17 nM	–	–	–
TTGGGGTAAGAAGGGAGGGCGGGGGTT [G7-TAAGAA]	–	–	–	–	60 nM	60 nM	60 nM
TTGGGGTTAGGGAGGGCGGGGGTT [5'-biotin G7-TTA]	6 nM	13 nM	10 nM	7 nM	–	–	–
TTGGGGTTAGGGAGGGCGGGGGTT [G7-TTA]	–	–	–	–	16 nM	28 nM	30 nM
TTGGGGTTATTAAGGGAGGGCGGGGGTT [5'-biotin G7-TTATTAA]	13 nM	5 nM	8 nM	8 nM	–	–	–
TTGGGGTTATTAAGGGAGGGCGGGGGTT [G7-TTATTAA]	–	–	–	–	50 nM	28 nM	90 nM
TTGGGGTTATTTTGGGAGGGCGGGGGTT [5'-biotin RHA0385]	8 nM	4 nM	5 nM	2 nM	–	–	–
TTGGGGTTATTTTGGGAGGGCGGGGGTT [RHA0385]	–	–	–	–	12 nM	14 nM	7 nM
